Results: the supplement of paper PMC9112550, “Optimization of the antimicrobial peptide Bac7 by deep mutational scanning” (BMC Biology, 2022)

Tested on: Escherichia coli TOP10
Test: shrunken log2 fold change of peptide-encoding DNA abundance (4.5 h post-induction vs induction); higher = less antimicrobial activity (less host growth inhibition)
Conditions: time post-induction: 4.5 h; library: site-saturation at positions 5, 18, 19, 20
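Also: peptides expressed intracellularly from a pBAD plasmid library in pooled LB shake-flask culture, induced with 0.3% L-arabinose, DNA abundance read by NGS, three biological replicates, DESeq2 with apeglm shrinkage.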

| Sequence | shrunken log2 fold change |
| --- | --- |
| RRIRNRPPRLPRPRPRPFPEPRP | -0.293 |
| RRIRFRPPRLPRPRPRPDIHPRP | -0.268 |
| RRIRYRPPRLPRPRPRPCGEPRP | -0.0504 |
| RRIRGRPPRLPRPRPRPYIDPRP | 0.093 |
| RRIRARPPRLPRPRPRPQDYPRP | -0.159 |
| RRIRNRPPRLPRPRPRPSWYPRP | -0.81 |
| RRIRFRPPRLPRPRPRPEKRPRP | -0.0774 |
| RRIRLRPPRLPRPRPRPVARPRP | 0.551 |
| RRIRGRPPRLPRPRPRPCYMPRP | -0.328 |
| RRIRGRPPRLPRPRPRPQEVPRP | 0.00966 |
| RRIRERPPRLPRPRPRPGRQPRP | 0.0676 |
| RRIRDRPPRLPRPRPRPAPLPRP | 0.445 |
| RRIRLRPPRLPRPRPRPHCPPRP | 0.0666 |
| RRIRLRPPRLPRPRPRPAKVPRP | -0.0169 |
| RRIRMRPPRLPRPRPRPLYMPRP | -0.222 |
| RRIRCRPPRLPRPRPRPHSFPRP | -0.404 |
| RRIRCRPPRLPRPRPRPEPTPRP | 0.628 |
| RRIRQRPPRLPRPRPRPMPAPRP | 0.178 |
| RRIRSRPPRLPRPRPRPKWNPRP | -0.154 |
| RRIRHRPPRLPRPRPRPIPIPRP | -0.115 |
| RRIRQRPPRLPRPRPRPPWQPRP | 0.729 |
| RRIRWRPPRLPRPRPRPMNEPRP | 0.0689 |
| RRIRARPPRLPRPRPRPLYRPRP | -0.28 |
| RRIRYRPPRLPRPRPRPDLEPRP | -0.0757 |
| RRIRWRPPRLPRPRPRPVYYPRP | -0.412 |

| Sequence | shrunken log2 fold change |
| --- | --- |
| RRIRDRPPRLPRPRPRPAFWPRP | -0.0581 |
| RRIRARPPRLPRPRPRPDEIPRP | 0.357 |
| RRIRWRPPRLPRPRPRPYKWPRP | -0.484 |
| RRIRNRPPRLPRPRPRPTSWPRP | -0.228 |
| RRIRWRPPRLPRPRPRPQFYPRP | -0.492 |
| RRIRIRPPRLPRPRPRPQTWPRP | -0.169 |
| RRIRERPPRLPRPRPRPWLGPRP | -0.247 |
| RRIRQRPPRLPRPRPRPYCMPRP | -0.302 |
| RRIRERPPRLPRPRPRPPMSPRP | -0.373 |
| RRIRHRPPRLPRPRPRPGKRPRP | -0.0157 |
| RRIRNRPPRLPRPRPRPIVHPRP | -0.205 |
| RRIRVRPPRLPRPRPRPSDQPRP | -0.669 |
| RRIRFRPPRLPRPRPRPVIKPRP | -0.339 |
| RRIRCRPPRLPRPRPRPFRTPRP | -0.421 |
| RRIRPRPPRLPRPRPRPLMQPRP | 0.124 |
| RRIRARPPRLPRPRPRPFTDPRP | 0.128 |
| RRIRFRPPRLPRPRPRPAWQPRP | 2.26 |
| RRIRCRPPRLPRPRPRPHTDPRP | -0.246 |
| RRIRFRPPRLPRPRPRPERYPRP | 0.0915 |
| RRIRQRPPRLPRPRPRPKRFPRP | -0.0339 |
| RRIRDRPPRLPRPRPRPRRRPRP | 0.736 |
| RRIRIRPPRLPRPRPRPQVMPRP | -0.604 |
| RRIRWRPPRLPRPRPRPADKPRP | 0.141 |
| RRIRLRPPRLPRPRPRPFAAPRP | 0.281 |
| RRIRVRPPRLPRPRPRPDRAPRP | -0.0118 |

| Sequence | shrunken log2 fold change |
| --- | --- |
| RRIRLRPPRLPRPRPRPHPGPRP | 0.242 |
| RRIRWRPPRLPRPRPRPHIHPRP | -0.359 |
| RRIRKRPPRLPRPRPRPFCYPRP | -0.14 |
| RRIRARPPRLPRPRPRPYTIPRP | -0.236 |
| RRIRFRPPRLPRPRPRPDMHPRP | 0.191 |
| RRIRCRPPRLPRPRPRPLSWPRP | 0.513 |
| RRIRFRPPRLPRPRPRPFNPPRP | -0.733 |
| RRIRFRPPRLPRPRPRPWDIPRP | -0.0124 |
| RRIRDRPPRLPRPRPRPQHCPRP | 0.0461 |
| RRIRGRPPRLPRPRPRPKTEPRP | 0.713 |
| RRIRNRPPRLPRPRPRPRKVPRP | 0.445 |
| RRIRNRPPRLPRPRPRPKKDPRP | 0.0489 |
| RRIRMRPPRLPRPRPRPTAVPRP | 1.64 |
| RRIRCRPPRLPRPRPRPQSCPRP | 0.0547 |
| RRIRWRPPRLPRPRPRPCLHPRP | -0.01 |
| RRIRVRPPRLPRPRPRPGKMPRP | -0.0672 |
| RRIRDRPPRLPRPRPRPLYAPRP | -0.122 |
| RRIRDRPPRLPRPRPRPYANPRP | -0.209 |
| RRIRMRPPRLPRPRPRPRDAPRP | 1.49 |
| RRIRPRPPRLPRPRPRPCLYPRP | -0.595 |
| RRIRHRPPRLPRPRPRPSLNPRP | -0.51 |
| RRIRFRPPRLPRPRPRPCRTPRP | 0.048 |
| RRIRFRPPRLPRPRPRPAACPRP | 0.0906 |
| RRIRDRPPRLPRPRPRPFPLPRP | 0.0517 |
| RRIRWRPPRLPRPRPRPGIKPRP | -0.168 |

| Sequence | shrunken log2 fold change |
| --- | --- |
| RRIRQRPPRLPRPRPRPQYYPRP | -0.243 |
| RRIRCRPPRLPRPRPRPFEGPRP | 0.0192 |
| RRIRERPPRLPRPRPRPNQMPRP | -0.0733 |
| RRIRHRPPRLPRPRPRPRWKPRP | 0.00489 |
| RRIRLRPPRLPRPRPRPRIIPRP | -1.12 |
| RRIRCRPPRLPRPRPRPPCTPRP | -0.0939 |
| RRIRCRPPRLPRPRPRPCHRPRP | -0.371 |
| RRIRYRPPRLPRPRPRPHGNPRP | -0.573 |
| RRIRQRPPRLPRPRPRPSAKPRP | 0.104 |
| RRIRIRPPRLPRPRPRPPTTPRP | 0.0744 |
| RRIRGRPPRLPRPRPRPINTPRP | -0.4 |
| RRIRHRPPRLPRPRPRPPQGPRP | 0.133 |
| RRIRSRPPRLPRPRPRPSHHPRP | -0.515 |
| RRIRVRPPRLPRPRPRPFYMPRP | -0.136 |
| RRIRDRPPRLPRPRPRPSVRPRP | 0.0325 |
| RRIRGRPPRLPRPRPRPTNAPRP | 0.923 |
| RRIRLRPPRLPRPRPRPIVHPRP | 0.67 |
| RRIRYRPPRLPRPRPRPFEQPRP | -0.382 |
| RRIRERPPRLPRPRPRPEEHPRP | -0.0183 |
| RRIRFRPPRLPRPRPRPQPKPRP | 0.666 |
| RRIRRRPPRLPRPRPRPKGRPRP | 0.135 |
| RRIRSRPPRLPRPRPRPVHPPRP | 0.245 |
| RRIRARPPRLPRPRPRPKTCPRP | 0.161 |
| RRIRNRPPRLPRPRPRPNCTPRP | -0.191 |
| RRIRERPPRLPRPRPRPSYLPRP | -1.2 |

| Sequence | shrunken log2 fold change |
| --- | --- |
| RRIRKRPPRLPRPRPRPGCWPRP | 0.466 |
| RRIRGRPPRLPRPRPRPTYGPRP | 0.372 |
| RRIRVRPPRLPRPRPRPGLTPRP | -0.011 |
| RRIRRRPPRLPRPRPRPDINPRP | -0.243 |
| RRIRPRPPRLPRPRPRPFMLPRP | -0.378 |
| RRIRRRPPRLPRPRPRPKQAPRP | 0.908 |
| RRIRGRPPRLPRPRPRPLGDPRP | 0.624 |
| RRIRDRPPRLPRPRPRPACQPRP | 0.0344 |
| RRIRMRPPRLPRPRPRPLGVPRP | 0.8 |
| RRIRWRPPRLPRPRPRPGFTPRP | 0.132 |
| RRIRNRPPRLPRPRPRPIEYPRP | -0.0134 |
| RRIRVRPPRLPRPRPRPHHFPRP | -0.114 |
| RRIRDRPPRLPRPRPRPPTWPRP | 0.291 |
| RRIRLRPPRLPRPRPRPKCSPRP | -0.035 |
| RRIRKRPPRLPRPRPRPYCCPRP | -0.237 |
| RRIRRRPPRLPRPRPRPYAWPRP | 0.157 |
| RRIRWRPPRLPRPRPRPWCYPRP | -0.475 |
| RRIRRRPPRLPRPRPRPCFLPRP | -0.269 |
| RRIRKRPPRLPRPRPRPMLHPRP | 0.164 |
| RRIRYRPPRLPRPRPRPVGNPRP | -0.0681 |
| RRIRRRPPRLPRPRPRPERQPRP | 0.522 |
| RRIRYRPPRLPRPRPRPYNHPRP | -1.5 |
| RRIRMRPPRLPRPRPRPIMSPRP | 0.0205 |
| RRIRMRPPRLPRPRPRPWLYPRP | -0.0206 |
| RRIRMRPPRLPRPRPRPLWCPRP | 0.147 |

| Sequence | shrunken log2 fold change |
| --- | --- |
| RRIRTRPPRLPRPRPRPPVYPRP | -0.0771 |
| RRIRSRPPRLPRPRPRPCRTPRP | -0.2 |
| RRIRDRPPRLPRPRPRPISKPRP | 0.002 |
| RRIRSRPPRLPRPRPRPSREPRP | -0.173 |
| RRIRQRPPRLPRPRPRPWHAPRP | -0.106 |
| RRIRIRPPRLPRPRPRPEVVPRP | 0.00224 |
| RRIRARPPRLPRPRPRPYVHPRP | -0.728 |
| RRIRDRPPRLPRPRPRPLARPRP | 0.479 |
| RRIRERPPRLPRPRPRPRCNPRP | -0.122 |
| RRIRERPPRLPRPRPRPNLPPRP | -0.0648 |
| RRIRCRPPRLPRPRPRPIDCPRP | -0.128 |
| RRIRNRPPRLPRPRPRPTIKPRP | -0.496 |
| RRIRSRPPRLPRPRPRPKWTPRP | -0.0493 |
| RRIRARPPRLPRPRPRPVKIPRP | 0.0527 |
| RRIRYRPPRLPRPRPRPPDYPRP | -2.1 |
| RRIRPRPPRLPRPRPRPINPPRP | -0.714 |
| RRIRQRPPRLPRPRPRPLCVPRP | -0.183 |
| RRIRDRPPRLPRPRPRPWGCPRP | 0.166 |
| RRIRWRPPRLPRPRPRPENSPRP | 0.0193 |
| RRIRGRPPRLPRPRPRPDTGPRP | -0.0756 |
| RRIRFRPPRLPRPRPRPPNYPRP | -0.023 |
| RRIRHRPPRLPRPRPRPMKGPRP | 0.081 |
| RRIRTRPPRLPRPRPRPHYMPRP | -0.476 |
| RRIRERPPRLPRPRPRPKEVPRP | -0.324 |
| RRIRVRPPRLPRPRPRPDEVPRP | 0.0201 |
